What was measured:
[1] = target: peroxisomal MAVS of Mefs MAVS-Pex cells (UniProt Q7Z434); test: co-IP; Mefs MAVS-Pex cells transfected with vMIA-myc or myc-Miro1 for 24 h; precipitated with an antibody against MAVS and Dynabeads Protein G; blot for MAVS and myc; controls: non-transfected cells, Mefs MAVS-KO cells with vMIA-myc
[2] = target: Pex19-YFP (UniProt P40855); test: co-IP; HFF cells transfected with vMIA-myc and Pex19-YFP for 24 h; precipitated with GFP antibody overnight at 4 °C and Dynabeads Protein G; blot for myc and GFP; control: cells with vMIA-myc alone
[3] = target: Pex19-YFP (UniProt P40855); test: co-IP; HepG2 cells co-transfected with Pex19-YFP and vMIA-myc for 24 h; Pex19-YFP precipitated with GFP-Trap_M beads, 2 h at 4 °C; lysis in 10 mM Tris-HCl pH 7.5, 150 mM NaCl, 0.5 mM EDTA, 0.5% NP-40; blot for myc, Pex19 and GFP; control: cells with GFP and vMIA-myc
[4] = target: vMIA-myc (HCMV mitochondria-localized inhibitor of apoptosis, myc-tagged) (human cytomegalovirus); test: co-IP; HFF cells transfected with vMIA-myc for 24 h; precipitated with myc antibody (2 h, 4 °C) and Protein G magnetic beads; blot for myc and endogenous Pex19; control: non-transfected cells
Chain of vMIA-myc (HCMV mitochondria-localized inhibitor of apoptosis, myc-tagged) (human cytomegalovirus) (P16778 23-487): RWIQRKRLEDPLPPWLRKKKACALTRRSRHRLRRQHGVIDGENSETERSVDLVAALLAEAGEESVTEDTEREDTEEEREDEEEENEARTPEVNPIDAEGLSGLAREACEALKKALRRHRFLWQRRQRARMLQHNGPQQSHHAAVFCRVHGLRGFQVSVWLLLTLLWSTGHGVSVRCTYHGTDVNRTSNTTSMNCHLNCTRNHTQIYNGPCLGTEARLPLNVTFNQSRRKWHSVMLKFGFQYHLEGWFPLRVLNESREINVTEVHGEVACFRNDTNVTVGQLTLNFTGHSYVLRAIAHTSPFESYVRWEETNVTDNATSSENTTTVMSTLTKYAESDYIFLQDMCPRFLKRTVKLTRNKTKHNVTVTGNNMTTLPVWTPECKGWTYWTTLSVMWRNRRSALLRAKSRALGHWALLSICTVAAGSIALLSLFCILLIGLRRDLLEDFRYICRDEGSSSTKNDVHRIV

Chain of UniProt Q7Z434 (Q7Z434 whole entry): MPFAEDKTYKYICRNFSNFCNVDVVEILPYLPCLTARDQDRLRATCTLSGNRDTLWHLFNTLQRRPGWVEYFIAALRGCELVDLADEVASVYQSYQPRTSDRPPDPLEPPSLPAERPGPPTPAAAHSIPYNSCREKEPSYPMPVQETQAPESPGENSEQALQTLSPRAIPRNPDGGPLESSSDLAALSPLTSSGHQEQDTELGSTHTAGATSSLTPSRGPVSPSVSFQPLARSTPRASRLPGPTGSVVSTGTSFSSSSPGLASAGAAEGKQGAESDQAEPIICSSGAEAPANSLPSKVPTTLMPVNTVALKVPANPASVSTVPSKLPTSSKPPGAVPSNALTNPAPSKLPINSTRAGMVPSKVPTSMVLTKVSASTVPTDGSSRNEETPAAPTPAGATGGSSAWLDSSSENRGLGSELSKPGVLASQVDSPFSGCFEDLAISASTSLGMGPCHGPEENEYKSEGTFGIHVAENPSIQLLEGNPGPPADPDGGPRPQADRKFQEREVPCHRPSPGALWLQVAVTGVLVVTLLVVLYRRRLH

## vMIA-myc (HCMV mitochondria-localized inhibitor of apoptosis, myc-tagged) (natural protein)
[1]
  fold increase of the IP band over the control: 18 fold
[2]
  fold increase of the IP band over the control: 5 fold
[3]
  fold increase of the IP band over the control: 7 fold

B1: endogenous Pex19 (natural protein)
chain: MAAAEEGCSVGAEADRELEELLESALDDFDKAKPSPAPPSTTTAPDASGPQKRSPGDTAKDALFASQEKFFQELFDSELASQATAEFEKAMKELAEEEPHLVEQFQKLSEAAGRVGSDMTSQQEFTSCLKETLSGLAKNATDLQNSSMSEEELTKAMEGLGMDEGDGEGNILPIMQSIMQNLLSKDVLYPSLKEITEKYPEWLQSHRESLPPEQFEKYQEQHSVMCKICEQFEAETPTDSETTQKARFEMVLDLMQQLQDLGHPPKELAGEMPPGLNFDLDALNLSGPPGASGEQCLIM
[4]
  fold increase of the IP band over the control: 3 fold

Source: PMC4867596
